Measured values: paper PMC8630636, “Fis Connects Two Sensory Pathways, Quorum Sensing and Surface Sensing, to Control Motility in Vibrio parahaemolyticus”

B1: ParaB_WT (probe 3) (dsDNA)
DNA 1: TTTTTGTCCATAAACTTAGCAACCCTATTTATGGGATAACCCAC
DNA 2: GTGGGTTATCCCATAAATAGGGTTGCTAAGTTTATGGACAAAAA
B2: Qrr3coding_mut (dsDNA)
DNA 1: CCTTCTTAAGCCGAGAGTATCTTAGATAAATGACGTTGTTAGTGAA
DNA 2: TTCACTAACAACGTCATTTATCTAAGATACTCTCGGCTTAAGAAGG
B3: ParaB_mut (probe 3) (dsDNA)
DNA 1: TTTTTATCACTCCTCGTAGAAACCCTATTTATGGGATAACCCAC
DNA 2: GTGGGTTATCCCATAAATAGGGTTTCTACGAGGAGTGATAAAAA

Target: T1, Fis (Vibrio parahaemolyticus RIMD2210633, UniProt P64128 1-98)
T1 sequence: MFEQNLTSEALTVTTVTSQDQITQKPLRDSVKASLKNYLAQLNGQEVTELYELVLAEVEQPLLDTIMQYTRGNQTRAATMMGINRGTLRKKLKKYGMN
Assay: EMSA; 10 mM Tris, 150 mM KCl, 0.1 mM DTT, 0.1 mM EDTA, 5% PEG, pH 7.4, 20 min at room temperature; 30 ng DNA; 6% native gel in 1x TAE at 4 C
Conditions: protein: recombinant; tags: 6xHis-MBP fusion (pMAL-c5x) removed by TEV cleavage; chain copies: 2; blunt

| Molecule | binding result |
| --- | --- |
| B1 | binds |
| B2 | no binding |
| B3 | no binding |

Target: T2, Fis (Vibrio parahaemolyticus RIMD2210633) (UniProt P64128)
T2 sequence: T1 sequence
Assay: EMSA
Conditions: 10 mM Tris, 150 mM KCl, 0.1 mM DTT, 0.1 mM EDTA, 5% PEG, pH 7.4, 20 min at room temperature; 30 ng DNA; 6% native gel in 1x TAE at 4 C

| Molecule | binding |
| --- | --- |
| AATCTACTTGTTGTTATAGCCAGAGCTGGTGGGTTATCCCATAAATAGGGTTGCTAAGTTTATGGACAAAAACGTCACTGGGTGTTTTTTGTGTCCTTTTTAACACCTTTATATATTGCTCAAAAATTAAGTGTTTTCGATCATGATTAACG (double strand) [ParaB probe 2] | binds |
| AGCCTGACGTTGGTAAGGTGCGCTAAAACACCAAAATATGCCGAGTTAAAAGATACCAAAAATCGATGTACTTCCTCTGTAGGAATAGTCCTATTTACATAGCAGGAAACACCTAAAGCAGCGCTTTATTAACGGCTTAATCAACACGTCACATTCCTAAAATGAATTAAATATTTTCAGCTTTTTAGTCGCCTTGTCTTATAGGGAAACACTAGATGTTTTCGAGAGGAAGGCGGAACACATA (double strand) [PlafB] | binds |
| CATAGGTTCACCTTTAAGAATTATTGTTTGTGTTATGGTTCACATTTATTTCAGTTACCGGTAACATGTTACCGATAACATGAATAAGATAAACCCATATTTTAAAGTGAATTCAAAAATTGAGATCACGCGCAAATT (double strand) [PgntK probe 1] | binds |
| CCATCCACTGGTAGAGGTGAGTGTTCGCTGTACATATTTGTGCATCCTTGACCATTTGTTAGTGATAAAAATCACAGCGGAAAAATGTAGCAATTTTGTCCATTCATTTAGCTACAGAGGCTATGAAGCAGCTCTCAA (double strand) [ParaB probe 1] | binds |
| CCATTTGAAAAGGGATTGAGTGTTGTTGATAGAGTTTTTTTTACTGGAGATTTGATACGTTAACTGGATTTTTGTAACATTAAAATGGAAGTGTGATTTTGCTCAATAGCACAAAAGTCCAGTCCGGTGT (double strand) [VPA1424 regulatory region (negative control)] | binds more weakly |
| CTTAATAATAGTTTTATCTATAAACAAACAGTGAGCTTTGTTATAAATTCATTAAAAATTTAACTTTGTATTAATTAGAAAATTCAGCGTCATATTTGTTCAACTGCGACTATTCTTTTTATAACCAAGTAATCTC (double strand) [PscrABC probe 2] | binds |
| GAGCTCTCCTAGGTACCAACCGTGAAATCCATTTACTGAGGTATTTTTCCTCATTAATTAGCAGTATAGGGTAAAAATATGAAAGCTAATGGATAATCATAAAGTAGTAGTTGGTTTTTTGCTGAGAAAGTGATTAGTAGCAATGTAACAAGTGGCATATTTGCATGCTATTGCATTTTGCAAATGCAATTTGCGAAAGTGCTGGTTAATAATGCGTCGATATGCACCTGGATCTATTAAAAAACGGCTTTTTTAAAGTTGGCACGCATCGTGCTTTATCTAGAG (double strand) [Pqrr4] | binds |
| GCGTTTATCATAAAAATAGTCAATTTAATGAATATTTTAATATGTATTCAGTTGTTTATTGGTTGGAGGCGAAACTGTTGCTTATGTCATCAAATAAGCTAAAAAAGTGGAACTAAAGTCACTTAATGGCAGAGTAAAAAATTAAAG (double strand) [PscrABC probe 1] | binds |
| TATGTTAAGTTTCATAAAATGGCTTGATGTTTAAATGAACAGTTAATTTTTAGACCATATATAGCGAGATCTAAAGTAGTTCAAACAAATGTACGGTCTAACTCTTAGCTGCGAGAACAAACCACTTGGATATACGCTC (double strand) [PscrABC probe 3] | binds |
| TCACGCGAATACGCACTTTAATACGTATGTCTAATGTTTATACGCGACCACTTTCGCCTAAAAGTTTAGGTATAGTTGATAATTAGTCGACTTAAGCAATCTATGTACCAAAATCAACGCCAAAATAATGACTCAAAGCTAAATAACAGCACAATCCATTG (double strand) [PflhA] | binds |
